B1: S. pombe single isoform (α1β) tubulin (complex)
chain 1: MREVISVHVGQAGVQIGNACWELYCLEHGIGPDGFPTENSEVHKNNSYLNDGFGTFFSETGQGKFVPRSIYVDLEPNVIDQVRTGPYKDLFHPEQMVTGKEDASNNYARGHYTVGKEMIDSVLERIRRMADNCSGLQGFLVFHSFGGGTGSGLGALLLERLNMEYGKKSNLQFSVYPAPQVSTSVVEPYNSVLTTHATLDNSDCTFMVDNEACYDICRRNLDIERPTYENLNRLIAQVVSSITASLRFAGSLNVDLNEFQTNLVPYPRIHFPLVTYSPIVSAAKAFHESNSVQEITNQCFEPYNQMVKCDPRTGRYMATCLLYRGDVIPRDVQAAVTSIKSRRTIQFVDWCPTGFKIGICYEPPQHVPGSGIAKVNRAVCMLSNTTSIAEAWSRLDHKFDLMYSKRAFVHWYVGEGMEEGEFSEAREDLAALERDYEEVGQDSMDNEMYEADEEY
chain 2: MREIVHIQAGQCGNQVGAAFWSTIADEHGLDSAGIYHGTSEAQHERLNVYFNEAAGGKYVPRAVLVDLEPGTMDAVKSGKFGNLFRPDNIIYGQSGAGNIWAKGHYTEGAELADAVLDVVRREAEACDALQGFQLTHSLGGGTGSGMGTLLLSKIREEYPDRMMATFSVAPAPKSSDTVVEPYNATLSMHQLVENSDETFCIDNEALSSIFANTLKIKSPSYDDLNHLVSAVMAGVTTSFRFPGELNSDLRKLAVNMVPFPRLHFFMVGFAPLAAIGSSSFQAVSVPELTQQMFDANNMMVAADPRHGRYLTVAALFRGKVSMKEVDEQIRSVQTKNSAYFVEWIPDNVLKAVCSVPPKDLKMSATFIGNSTSIQEIFRRLGDQFSAMFRRKAFLHWYTGEGMDEMEFTEAESNMNDLVSEYQQYQEAGIDEGDEDYEIEEEKEPLEY
notes: alpha-1 tubulin (α1) of S. pombe, from strain mmsp174 (atb2 replaced by nda2+); beta tubulin (β) of S. pombe, from strain mmsp174; Stands both as the free GTP-tubulin heterodimer and as the growing plus end of the microtubule polymerised from it; which of the two is meant is told in the assay's format and the quantity; also called GTP-tubulin; T (tubulin dimer); source: purified from S. pombe …

Legend:
[1] = biological target: S. pombe dual-isoform (α1β + α2β) tubulin (S. pombe) (UniProt P04688); test: DIC video microscopy of microtubule growth; addition of GTP-tubulin to plus and minus ends of MTs nucleated by axoneme fragments; growth rate against tubulin concentration, linear regression, apparent rate constants; 100 mM K-PIPES, 1 mM MgSO4, 2 mM EGTA, 1 mM DTT pH 6.9, 1 mM GTP, no glycerol, 25 °C
[2] = biological target: the molecule itself; test: microtubule growth rates (VE-DIC video microscopy) against tubulin concentration, fit of a bimolecular reaction; GTP-tubulin dimer adding to and leaving the microtubule plus end; single isoform S. pombe tubulin in PEM at 25 °C, without Alp14; apparent rate constants per microtubule end in dimers
[3] = biological target: the molecule itself; test: glycerol gradient centrifugation; 5-40% glycerol gradient of purified Alp14, Alp7 and tubulin, alone or mixed; tubulin as GTP-tubulin where stated; fractions on SDS-PAGE with Coomassie staining
[4] = biological target: B1; test: microtubule growth rates (dark-field microscopy) with Alp14, fit of a kinetic model; Alp14-facilitated pathway T + M + E = TE + M = E + (M+1); Alp14 resident at the plus end of S. pombe α1β microtubules grown from GMPCPP seeds; 6 µM or 0.5 µM tubulin, nanomolar Alp14, PEM100, 25 °C; constants are parameters fitted to or constrained by the growth data, steady state assumed; conditions: both partners purified
[5] = biological target: B1; test: as above; conditions: both partners purified; remark: listed apart in the source

## S. pombe dual-isoform (α1β + α2β) tubulin (from UniProt P04688 1-455; P04689 1-449; P05219 1-448) (complex)
[1]
  Kd = koff/kon (critical concentration), minus end: 1900 nM
  Kd = koff/kon (critical concentration), plus end: 2000 nM
  koff, minus end: 3.1 nm/s
  koff, plus end: 9.3 nm/s
  kon, minus end (nm s^−1 μM^−1): 1.6
  kon, plus end (nm s^−1 μM^−1): 4.7

## B1
[2]
  koff: 6.6 s⁻¹
  kon: 5.5e+06 M⁻¹ s⁻¹

B2: Alp7, full length, with an N-terminal avi-tag (natural protein, S. pombe, UniProt Q9URY2 1-474, looked up)
chain: MSDIVSSSTDYSRRSPSSSSIGTNETDHTGFHEKRQGASSESLIPPAQRSSEESMPAPKLFPKLTSKPNPQLNLKDTLNKRVSDRLQALELNKSFDFSGTPRPMHPISHPLSQHKTPEFKHRKRNVESILTPKNPSLFSSSNAASQRGSLNTAPSNFAYSHSSSLQTSASSRPPVLSNGSFPRQTNTAPLNPPVHLKDNIRNSATPSTSQADIPTQYPINSTQKQQAKYEAEIEGYKAKLAGTYHEISVLQNTIVNVSGQLIAVNDQLQQLRSGKASTSPSTKDTNMRLVEGHNEETLALQRGKYTQEEVDKLIQERMEKVAEDLHAQYSAKHTQKINAFKANYARKYEATIQELQNQIGTAPNAPKISNSNWEEERRALKADNQTLQKQLEKAIQERQDMSDFLNNFKADMAKSDKLLMQQQSQQTGDLETLRLQLQALQEELRVEREERQQLIQMSEDLVIAMDQLNLEQKS
modifications: biotin on the AviTag (BirA ligase co-expressed to ensure biotinylation)
notes: Alp7 (Mia1p), TACC-family protein of S. pombe, full length; gene PCR-amplified from wild-type genomic S. pombe DNA; also called Alp7/TACC; Mia1p; source: Sf9 insect cells (baculovirus, BirA ligase co-expressed), purified on monomeric avidin agarose
[3]
  binding result: binds

B3: Alp14 (full length, S. pombe TOG-family microtubule polymerase) (enzyme, UniProt O94534 1-809, looked up)
chain: MSQDQEEDYSKLPLESRIVHKVWKVRLSAYEECSKSFSLSADGSDNCFELWNNQSELWKSVLTDSNVAAQEAGTAAFVAYCRFSDPSHLLKAREISVLSISEKCLTSPRAGTRENALEALMLLVEADSAAPVIESIIPSLSARSPKVIASNVAAIASLVEQFGAKVIPSKMIIPHISNLFGHADKNVRKEASRLTVNIYRWTGDPLKDLLFKDLRPVQTKELESLFAELPTEPPKQTRFLKSQQPTSEPNVETQVEEQPALENEESEPEPSDDQFDLVEEVDVLPNVDPNLETLMASSKWKDRKEALDKLLPVLSQPKIKDNDFFNLVAILTKSVSKDANIMVVINAAHCIQAMAKGLRSNFSKYASTSINALLERSKEKKANVIESLSSAMDAVLATSSLDDLAELIASFAGNKNPQIKSSCFSLFSRSFSNMTSLPSKFTVDTCAKACVPGVSDTFEPVRSAAAEALGVLMKLVGERAINQYLSPLDDIRKSKIRSFYETATVKAKAPTKKSKVKPSKQEESKVVVPSNAKAVKKSVVPSSPVVPSPRKATNKSLSMDVSKGNAFENGPLLPRPTTRPVSRGLSRGTSSSLQQKVKASTPLNSGALNETVQNLKNMELDDPAPQPAKHSRVDRYEHPKVLEDNDSTISSLESLKRENEELREQLKVEHEENISMQKQLSELKGELNTLRSARKASPIGDRKPAFMRRANTDFLELSTSPSFQRSVREFEPTRPKLYSSIDVNQRSPLASAKTNGNFTFHAELPRSPFSSRANNINPDWTKAIDLAAKLKQKITEMKQTDQRHQGLIH
notes: Alp14, S. pombe, full length; gene PCR-amplified from wild type genomic S. pombe DNA; also called Alp14/TOG
[4]
  Kd: 6 nM
  koff: 1 to 15 s⁻¹
  kon: > 4e+07 M⁻¹ s⁻¹
[5]
  Kd: > 5 nM

B4: Alp14, full length, with a C-terminal his or Avi tag (natural protein, S. pombe, UniProt O94534 1-809, looked up)
chain: MSQDQEEDYSKLPLESRIVHKVWKVRLSAYEECSKSFSLSADGSDNCFELWNNQSELWKSVLTDSNVAAQEAGTAAFVAYCRFSDPSHLLKAREISVLSISEKCLTSPRAGTRENALEALMLLVEADSAAPVIESIIPSLSARSPKVIASNVAAIASLVEQFGAKVIPSKMIIPHISNLFGHADKNVRKEASRLTVNIYRWTGDPLKDLLFKDLRPVQTKELESLFAELPTEPPKQTRFLKSQQPTSEPNVETQVEEQPALENEESEPEPSDDQFDLVEEVDVLPNVDPNLETLMASSKWKDRKEALDKLLPVLSQPKIKDNDFFNLVAILTKSVSKDANIMVVINAAHCIQAMAKGLRSNFSKYASTSINALLERSKEKKANVIESLSSAMDAVLATSSLDDLAELIASFAGNKNPQIKSSCFSLFSRSFSNMTSLPSKFTVDTCAKACVPGVSDTFEPVRSAAAEALGVLMKLVGERAINQYLSPLDDIRKSKIRSFYETATVKAKAPTKKSKVKPSKQEESKVVVPSNAKAVKKSVVPSSPVVPSPRKATNKSLSMDVSKGNAFENGPLLPRPTTRPVSRGLSRGTSSSLQQKVKASTPLNSGALNETVQNLKNMELDDPAPQPAKHSRVDRYEHPKVLEDNDSTISSLESLKRENEELREQLKVEHEENISMQKQLSELKGELNTLRSARKASPIGDRKPAFMRRANTDFLELSTSPSFQRSVREFEPTRPKLYSSIDVNQRSPLASAKTNGNFTFHAELPRSPFSSRANNINPDWTKAIDLAAKLKQKITEMKQTDQRHQGLIH
notes: Alp14, TOG-family microtubule polymerase of S. pombe, full length; gene PCR-amplified from wild-type genomic S. pombe DNA; also called Alp14/TOG; full length Alp14
[3]
  binding result: binds
